Data set [1] has as its target T1, Csm2;Psy3 (Saccharomyces cerevisiae;Saccharomyces …, UniProt P40465;Q12318 1-213;1-242, |).
T1 sequence 1: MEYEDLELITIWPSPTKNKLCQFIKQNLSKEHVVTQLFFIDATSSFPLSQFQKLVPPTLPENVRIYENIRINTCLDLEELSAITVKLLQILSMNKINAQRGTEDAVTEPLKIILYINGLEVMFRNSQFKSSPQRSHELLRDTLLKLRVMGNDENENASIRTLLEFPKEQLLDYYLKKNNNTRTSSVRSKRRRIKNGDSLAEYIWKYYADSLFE
T1 sequence 2: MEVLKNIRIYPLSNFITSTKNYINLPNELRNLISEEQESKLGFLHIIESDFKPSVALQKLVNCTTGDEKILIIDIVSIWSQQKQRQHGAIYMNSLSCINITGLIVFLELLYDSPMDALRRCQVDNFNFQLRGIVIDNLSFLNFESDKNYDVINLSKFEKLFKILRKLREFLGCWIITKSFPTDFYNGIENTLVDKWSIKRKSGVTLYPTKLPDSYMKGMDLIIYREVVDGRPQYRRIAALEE
In words: competition.

Data set [2] concerns the target T1, Csm2;Psy3. Put plainly: fluorescence anisotropy. (In general: Polarisation of emitted light reports the rotation of a fluorescent probe.)
The target in the next data set is T2, Psy3 (S. cerevisiae, UniProt Q12318 1-242).
T2 sequence: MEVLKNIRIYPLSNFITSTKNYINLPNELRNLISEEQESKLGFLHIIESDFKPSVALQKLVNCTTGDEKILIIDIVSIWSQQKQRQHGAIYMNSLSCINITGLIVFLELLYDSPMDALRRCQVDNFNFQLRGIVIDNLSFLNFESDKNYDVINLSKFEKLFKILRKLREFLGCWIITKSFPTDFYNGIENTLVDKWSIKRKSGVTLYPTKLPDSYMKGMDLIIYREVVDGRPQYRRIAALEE
Put plainly: SEC. For orientation: Size exclusion chromatography separates by hydrodynamic size, large species first.

B1: 3'-overhang (mixed)
DNA 1: CTGCGAGCTCGAATTCACTGGAGTGACCTC
DNA 2: GAGGTCACTCCAGTGAATTCGAGCTCGCAGTGTCTAGGTCGTGACTTTGA
As to B1, the binding result in the data set with Csm2;Psy3 [1] is listed as “binds”.

B2: fluorescein-labelled fork (mixed)
DNA 1: TTTTTTTTTTTTTTTTTTTTCTTGACAAGCTTGCGCACT
DNA 2: AGTGCGCAAGCTTGTCAAGGCACTTTTTTTTTTTTTTTT
Molecule B2 yielded a dissociation constant Kd with Csm2;Psy3 [2] of 361 ± 10.9 nM.

B3: Csm2 (natural protein)
chain: MEYEDLELITIWPSPTKNKLCQFIKQNLSKEHVVTQLFFIDATSSFPLSQFQKLVPPTLPENVRIYENIRINTCLDLEELSAITVKLLQILSMNKINAQRGTEDAVTEPLKIILYINGLEVMFRNSQFKSSPQRSHELLRDTLLKLRVMGNDENENASIRTLLEFPKEQLLDYYLKKNNNTRTSSVRSKRRRIKNGDSLAEYIWKYYADSLFE
On to B3, for which the binding result with Psy3 is on record as “binds”.

As usually defined, the Kd is the free concentration of one partner at which half of the binding sites on the other are occupied at equilibrium, for simple one-to-one binding. Read a low Kd as tighter binding.

(Values after article PMC3632125 (Nucleic Acids Research, 2013).)
